Data reported in US7989466B2, “Methods to inhibit or augment an inflammatory response” (Cambridge Enterprise Limited, priority 1999, dated 2011).
Read-outs that look alike come from different tables or passages of the source. Positions of bridges follow the written chain, without caps; N, C: chain ends. Non-standard residues stand in square brackets, D forms with d. No end group written: not given here.

Tests used:
[1] = molecular target: T1, short splice variant D2 dopamine receptor (Homo sapiens, UniProt P14416); test: Dopamine receptor membrane binding (3H-Spiperone); conditions: 100 μM highest concentration tested; read-out: ED50 for competition of spiperone binding to short splice variant D2 dopamine receptor
T1 construct: purchased RBI/Sigma D-179
Description: For dopamine receptor binding, membranes (D-179, RBI/Sigma) are diluted into binding buffer (75 mM Tris pH 7.4, 12.5 mM MgCl2 and 2 mM EDTA). For example, 10 μl of membranes are diluted in 500 μl of binding buffer (i.e., 1:50 dilution), which is aliquoted into labelled tubes. Cold competitor or test competitor is added, (e.g., 5 μl of 100× stock solution; 5 μl of 1 mM haloperidol solution (H-100, RBI/Sigma in DMSO). Radioligand is then added (3H-Spiperone, TRK 818, Amersham, 250 μCi in 250 μl, 10.5 μM at 95 Ci/mmol). For competition studies, 0.5 nM is used. A 100× stock (i.e., 50 nM) is made by diluting the commercial stock 1:210 in binding buffer, and 5 μl is added to every tube. Control tubes have radioligand but no membranes. The mixtures are vortexed, then spun very briefly. The mixtures are then incubated for 1 hour at 27° C. in a water bath. The mixture is filtered through GF/C filters over a vacuum. Each filter is pre-soaked in polyethyleneimine (0.3% in water; add 1 ml of 10% stock (P-261; RBI/Sigma) to 33 ml of MilliQ water). The tubes are washed with 2-3 ml of wash buffer (50 mM Tris pH 7.4) and the wash filtered. The filters are then rinsed with 3×5 ml of wash buffer, air dried, placed in a scintillation vial and 4.5 ml of scintillant added. The activity on the filter is then determined.

[2] = system: MCP-1 induced THP-1 migration; test: THP-1 trans-well migration assay, MCP-1 as chemoattractant; assay type: cell-based, human; conditions: for EC50: Homo sapiens
In short: (§1)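 5×10^4 THP-1 cells with serially diluted peptide in upper chamber, 5 µm filter, recombinant human chemokine 50 ng/ml (5.9 nM) in lower chamber. Incubated 4 h at 37 °C. Migrated cells counted by MTT staining, A595 read against a THP-1 standard curve.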

α2-adrenoceptors = test: α2-adrenoreceptor membrane binding (3H-RS-79948-197)
CCR5 = molecular target: T2, CCR5 (Homo sapiens, UniProt P51681); test: Scatchard analysis of labeled RANTES binding to CCR5 HOS cells; conditions: 4° C., 2 hours, read-out: affinity of RANTES binding sites
T2 construct: host or cells: HOS cells
Description: To establish the kinetics of labeled RANTES binding to CCR5, CCR5 cells and their parental line were exposed to labeled RANTES at 0.05 nM in the absence or presence of a 500-fold excess of unlabeled RANTES. Binding was performed at either 4° C. or room temperature for various periods between 30 minutes and 4 hours. All data was collected in triplicate. Equilibrium was achieved slightly quicker at room temperature than 4° C., and that in both cases binding was complete by 2 hours (FIG. 22A). […] Based on this experiment, all binding experiments were done at 4° C. for 2 hours.
A Scatchard analysis was performed under the conditions determined to represent equilibrium binding. The purpose of this experiment was to estimate the number of high affinity binding sites (CCR5 receptors) on the cell surface, since the full Scatchard analysis is performed under conditions where the binding was limited by availability of binding sites, not by number of molecules RANTES added. The result indicated about 80,000 binding sites per cell on the parental line and about 200,000-400,000 binding sites per cell on the high expressing CCR5 line. Using this information, the conditions necessary to perform a full 12-point Scatchard analysis at equilibrium, limited by binding site number, were calculated. […]

[3] = molecular target: T3, Duffy Antigen Receptor for Chemokines (DARC) (Homo sapiens, UniProt Q16570); test: DARC binding: competition with 125I-MCP-1 on red blood cells
T3 sequence (Q16570 1-336): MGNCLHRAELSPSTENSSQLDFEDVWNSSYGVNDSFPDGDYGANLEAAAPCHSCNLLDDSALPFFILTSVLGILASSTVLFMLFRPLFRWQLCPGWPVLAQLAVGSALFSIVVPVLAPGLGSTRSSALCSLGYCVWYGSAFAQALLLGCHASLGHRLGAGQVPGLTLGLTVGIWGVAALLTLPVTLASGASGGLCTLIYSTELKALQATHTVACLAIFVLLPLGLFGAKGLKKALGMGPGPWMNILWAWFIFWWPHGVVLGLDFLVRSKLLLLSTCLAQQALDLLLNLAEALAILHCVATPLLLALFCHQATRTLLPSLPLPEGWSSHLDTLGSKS

[4] = system: MIP1α induced THP-1 migration; test: THP-1 trans-well migration assay, MIP1α as chemoattractant; assay type: cell-based, human; conditions: ns = not significantly different from control
In short: as §1

CCR5/CXCR4 = test: Affinity for CCR5/CXCR4; assay type: binding; conditions: read-out: affinity constant for CCR5/CXCR4
gp120 = conditions: ns = not significantly different from control; >100 = ED50 not determined
[5] = system: SDF-1α induced THP-1 migration; test: THP-1 trans-well migration assay, SDF-1α as chemoattractant; assay type: cell-based, human; conditions: ns = not significantly different from control
In short: as §1

HIV = assay type: cell-based; conditions: ns = not significantly different from control
[6] = rat, in vivo
[7] = mouse, in vivo, sc

T1 sequence (P14416 1-414 isoform P14416-2): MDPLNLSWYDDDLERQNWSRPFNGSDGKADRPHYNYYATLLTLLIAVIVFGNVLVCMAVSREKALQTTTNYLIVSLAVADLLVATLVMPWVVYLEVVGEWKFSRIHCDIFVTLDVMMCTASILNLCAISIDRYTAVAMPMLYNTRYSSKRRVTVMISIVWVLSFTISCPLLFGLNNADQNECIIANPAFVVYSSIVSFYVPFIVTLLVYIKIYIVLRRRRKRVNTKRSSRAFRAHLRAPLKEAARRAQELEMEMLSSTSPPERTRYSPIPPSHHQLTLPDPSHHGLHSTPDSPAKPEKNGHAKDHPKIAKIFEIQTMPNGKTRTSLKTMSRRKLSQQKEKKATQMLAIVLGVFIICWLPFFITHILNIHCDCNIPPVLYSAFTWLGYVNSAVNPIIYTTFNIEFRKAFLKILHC
T2 sequence (P51681 whole entry): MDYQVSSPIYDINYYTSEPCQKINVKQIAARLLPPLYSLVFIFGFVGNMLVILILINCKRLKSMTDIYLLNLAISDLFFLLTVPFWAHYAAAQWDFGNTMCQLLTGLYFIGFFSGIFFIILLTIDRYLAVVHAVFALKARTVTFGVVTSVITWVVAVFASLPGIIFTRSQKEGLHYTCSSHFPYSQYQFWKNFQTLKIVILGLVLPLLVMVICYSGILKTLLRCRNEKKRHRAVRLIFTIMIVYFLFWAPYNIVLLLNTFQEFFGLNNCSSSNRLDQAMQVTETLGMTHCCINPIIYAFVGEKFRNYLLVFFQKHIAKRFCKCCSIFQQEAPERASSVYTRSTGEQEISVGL

O=C1CCC(N2C(=O)c3ccccc3C2=O)C(=O)N1 (stereo not drawn) [Thalidomide, reference compound]
IC50 [1]: > 100000 nM | activity in the MCP-1 induced THP-1 migration assay, in words [2]: at 100 μM also inhibited THP-1 migration induced by MCP-1 | EC50 ([2]; THP-1, agent with the cells in the upper compartment, n.s. = no statistically significant inhibition (p > 0.05), read-out: ED50 versus MCP-1, inhibition of THP-1 migration): ~50000 nM

NC(=O)C1C(O)CCC2CN3CCc4c([nH]c5ccccc45)C3CC21 (stereo not drawn) [Y-II, Yohimban-17-amide]
EC50 ([2]; THP-1, read-out: ED50 versus MCP-1 induced chemotaxis of THP-1): 0.5 nM | selectivity for chemokine inhibition of alpha-adrenoreceptor binding (α2-adrenoceptors): 1,500 fold

RANTES
Kd (CCR5): ~1 nM

Vaekpcksstirrys (V[dA][dE][dK][dP][dC][dK][dS][dS][dT][dI][dR][dR][dY][dS]) [LRD peptide 2(1-15)[MCP-1]]
decrease in Duffy binding relative to the LFL peptide [3]: ~100 fold | association (affinity) constant for DARC ([3]; red blood cells): 25 µM | MCP-1 ED-50 ([2]; ns = not significantly different from control): ns | MIPIa ED-50 [4]: ns | Kd (CCR5/CXCR4): ≤ 100 nM | gp120 ED-50 (gp120): 3 µM | SDF1a ED-50 [5]: ns | % virus inhibition (HIV): 72%

^3H-CRD-L-Leu4Ile11Cys13 peptide 3(3-12)[MCP-1]: diastereomer of CRD-Leu4Ile11Cys13 peptide 3(3-12)[MCP-1] with L-leucine instead of D-leucine ([dC][dQ][dI][dW][dK][dQ][dK][dP][dD]L[dC]-NH2; disulfide 1-11; also: 3H-labelled, site not given here)
A [6]: A: 48.88 μg/mL | AUC [6]: 31430 ng·h/mL | B [6]: B: 63.64 μg/mL | Maximal concentration [6]: 1,710 ng mL^−1 | Maximal concentration/dose [6]: 0.000017 | Vd [6]: 0.36 L/kg | dose accounted for in the 25 tissues and organs assayed at 3 hours post injection [6]: about 11 % i.d. | dose excreted in urine over the first 2 hours [6]: > 80 % i.d. | injected radioactivity in the urine with a mass consistent with the intact, cyclized structure [6]: > 80% | serum concentration at 30 minutes [6]: 591 ng/g | share of the total counts in the unwashed cell pellet at 10 minutes [6]: < 12% | α [6]: α: 9.59 | β [6]: β: 2.42 | dose eliminated in the urine over the first 4 hours ([6]; iv): 86.6+/−16.5 % i.d. | injected dose present in blood by four hours post injection ([6]; iv): about 0.1% | serum concentration at 10 minutes post injection, females ([6]; iv): 1238 ± 138 ng/mL | serum concentration at 10 minutes post injection, males ([6]; iv): 1141 ± 283 ng/mL | serum level at 10 minutes, females ([6]; iv): 12.45±1.39 % of the injected dose | serum level at 10 minutes, males ([6]; iv): 14.38±3.46 % i.d. | Elimination half-life ([6]; iv, 100 ug): 11.4 min | alpha-phase T1/2 ([6]; iv, 100 ug): 4.2 min | beta-phase T1/2 ([6]; iv, 100 ug): 17.4 min | dose remaining in the blood by 2 hours ([6]; iv, 2 h): less than 1 % i.d. | activity in the MCP-1 induced THP-1 migration assay, in words [2]: retained functional activity | average serum concentration at 30 minutes post injection [7]: 503 ng/g
